From article PMC10837206, “R-Spondin 2 governs Xenopus left-right body axis formation by establishing an FGF signaling gradient” (Nature Communications, 2024)

T1: recombinant human FGFR4 Fc Chimera (human, UniProt P22455 22-369)
T1 construct: Fibroblast Growth Factor receptor 4 (FGFR4), human, extracellular domain; also called FGFR4^ECD; extracellular domain (ECD) of FGFR4; source: bought: R&D systems 685-FR and BioLegend 752502
T1 sequence (looked up): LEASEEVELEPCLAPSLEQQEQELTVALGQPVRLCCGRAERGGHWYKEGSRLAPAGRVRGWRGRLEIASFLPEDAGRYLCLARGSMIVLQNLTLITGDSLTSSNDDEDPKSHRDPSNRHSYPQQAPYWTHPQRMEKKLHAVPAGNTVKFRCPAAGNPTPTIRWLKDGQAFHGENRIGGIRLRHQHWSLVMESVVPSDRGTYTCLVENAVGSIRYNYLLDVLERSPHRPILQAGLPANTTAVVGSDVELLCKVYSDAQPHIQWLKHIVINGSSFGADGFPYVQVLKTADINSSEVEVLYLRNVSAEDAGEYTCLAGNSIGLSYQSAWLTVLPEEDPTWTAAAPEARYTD

B1: TK peptide (10-mer derived from the human RSPO2 TSP1 domain) (peptide)
peptide: TRQIVKKPVK
notes: stretch of the TSP1 domain of human R-Spondin 2 (RSPO2)
B2: KC peptide (10-mer derived from the human RSPO2 TSP1 domain) (peptide)
peptide: KKPVKDTILC
notes: as for B1
B3: human RSPO2-AP (alkaline-phosphatase-tagged R-Spondin 2 fusion protein) (ligand, UniProt Q6UXX9 22-243, looked up)
chain: QGNRWRRSKRASYVSNPICKGCLSCSKDNGCSRCQQKLFFFLRREGMRQYGECLHSCPSGYYGHRAPDMNRCARCRIENCDSCFSKDFCTKCKVGFYLHRGRCFDECPDGFAPLEETMECVEGCEVGHWSEWGTCSRNNRTCGFKWGLETRTRQIVKKPVKDTILCPTIAESRRCKMTMRHCPGGKRTPKAKEKRNKKKKRKLIERAQEQHSVFLATDRANQ
notes: R-Spondin 2 (RSPO2), human; also called R2; source: HEK293T, transfected, conditioned medium

How the values were obtained:
[1] = molecular target: T1, recombinant human FGFR4 Fc Chimera; assay: in vitro competitive binding assay (solid phase, bound AP activity); as a8; the peptide (100 uM) against coated FGFR4 Fc Chimera; conditions: both partners purified
[2] = molecular target: T1, recombinant human FGFR4 Fc Chimera; assay: in vitro binding assay (solid phase, bound AP activity); titration of RSPO2-AP on coated FGFR4 Fc Chimera (R&D systems 685-FR); Scatchard analysis; conditions: one partner purified

Binder	binding result [1]	Kd [2]
B1	binds	
B2	binds	
B3		1.5 nM
